Measurements: the nanobody polyreactivity screen of Harvey et al. (2022)

Assay: yeast display, Sf9 membrane polyspecificity reagent, FACS + sequencing; frameworks hold sequencing errors
How it was run: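 Using colony PCR, genes from sorted yeast display clones were amplified, then sequenced on MiSeq at 2 × 250 and filtered by CDR length. The clones had been stained with 10% biotinylated, detergent-solubilized Sf9 membrane reagent for 1 hour at 4 °C and sorted by FACS into low and high (top ~1%) gates on anti-HA and streptavidin fluorescence. Polyreactivity labels come from the gate of origin.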

Sequence | polyreactivity (PSR sort gate)
QVQLVESGGGLVQAGGSLRLSCAASGITFRYYAMGWSRQAPGKERELVAAITRGGRTNYADSVKGRFTISRDNAKNTVYLQMNSLKPEDTAVYYCATGRDSNFGNSYYYWGQGTQVTVSS | high polyreactivity
QVQLVESGGGLVQAGGSLRLSCAASGITFRYYAMGWYRPAPGKERELVASITSGGVNTYYADSVKGRFTISRDNAKNTVYLQMNSLKPEDTAVYYCATTYVGETLTGPGDYWGQGTQVTVSS | low polyreactivity
QVQLVESGGGLVQAGGSLRLSCAASGITFRYYAMGWYRQAPGKERELVATITRGGSTYYADSVKGRFTISRDNAKNTVYLQMNSLKPEDTAVYYCAARQWYRYKVRFDYWGQGTQVTVSS | high polyreactivity
QVQLVESGGGLVQAGGSLRLSCAASGITFRYYAMGWYRQGPGKERELVASITSGGVNTYYADSVKGRFTISRDNANNTDYLQMNSLKPEDTAVFYCATRFSYSALGGYDYWGQGTQVTVSS | low polyreactivity
QVQLVESGGGLVQAGGSLRLSCAASGITFSANAMGWYRQAPGKERELVATITWSGGSTYYADSVKGRFTISRDNAKNTVYLQMNSLKPEDTAVYYCNARSYDEYPYYSYNYWGQGTQVTVSS | low polyreactivity
QVQLVESGGGLVQAGGSLRLSCAASGITFSAYAMGWYRQAPGKERELVAAISWSGGNTYYADSVKGRFTISRDNAKNTVYLQMNSLKPEDTAVYYCAAEREAYNTWFDYWGQGTQVTVSS | high polyreactivity
QVQLVESGGGLVQAGGSLRLSCAASGITFSRNPMGWYRQAPGKEWELVAAISWSGGSTYYADSVKGRYTISRDNAKNTVYLQMNSLKPEDTAVYYCNVGRRERLEGGYWGQGTQVTVSS | high polyreactivity
QVQLVESGGGLVQAGGSLRLSCAASGITFSRYAMGWYRQAPGKERELVAAISKRGGRTYYADSVKGRFTISRDNAKKTDYLQMNSLKPEDTAVYYCATDYYVSTDYNYWGQGTQVTVSS | high polyreactivity
QVQLVESGGGLVQAGGSLRLSCAASGITFSVNAMGWYRQAPGKERELVASISSGGSTNYADSVKGRFTISRDNAKNTVYLQMNSLKPEDTAVYYCAVAYYPHGREGAHFQYGYDYWGQGTQVTVSS | low polyreactivity
QVQLVESGGGLVQAGGSLRLSCAASGITFSVYAMGWYRQAPGTERELVAAISGSAGSTYYADSVKGRFTISRDNAKNTVYLQLNSLKPEDTAVYYCAARLAPKYSPSSYNYWGEGTQVTVSS | high polyreactivity
QVQLVESGGGLVQAGGSLRLSCAASGITFSVYTMGWYRQAPGKERELVAAIDSDGITNYADSVKGRFTISRDNAKNTVYLQMNSLKPEDTAVYYCAKQSGRADGVSGFDYWGQGTQVTVSS | low polyreactivity
QVQLVESGGGLVQAGGSLRLSCAASGITFSWYVMGWSRQAPGKERDLVATITNRGGSTYYADSVKGRFTISRDNAKNTVYLQMNSLKPEDTAVYYCAARKKGSRVGYDYWGQGTQVTVSS | high polyreactivity
QVQLVESGGGLVQAGGSLRLSCAASGITFSYYAMGWYRQAPGKERELVAASTSGGSTKYADSVKGRFTISRDNAKNTVYFQMNSLKPEDTAVYYCAVRIRRSHDYDYWGQGPQVTVSS | low polyreactivity
QVQLVESGGGLVQAGGSLRLSCAASGITFTAYAMGWYRQAPGKERELVATINSTGITNYADSVKGRFTISRDNAKNTVYLQMNSLKPEDTAVYYCAADLLDISSYDGMDYWGHGTQVTVSS | low polyreactivity
QVQLVESGGGLVQAGGSLRLSCAASGITFTGNSMGWYRQAPGKERELVAAISNRGGSTYYADSVKGRFTISRDNAKNTVYLQMNSLKREDTAVYYCRTSTPRRVSGNYWGQGTQVTVSS | high polyreactivity
QVQLVESGGGLVQAGGSLRLSCAASGITFTGYAMGWYRQAPGKERELVAVISETGGSTYADSVKGRFTISRDNAKNTVYLQMNSLKPEDTAVYYCAARLWWPYSTAWAKMDYWGQGTQVTVSS | low polyreactivity
QVQLVESGGGLVQAGGSLRLSCAASGITFTGYGMGWYRQAPGKERELVAAIRLRTGSTYYADSVKGRFTISRDNAKNTVYLQMYSLKPEDTAVYYCAAAFPRYRSRAIRVDYWGQGTQVTVSS | high polyreactivity
QVQLVESGGGLVQAGGSLRLSCAASGITFTKYAMGWYRQAPGNERELVAAITTTGGSTYYADSVKGRFTISRDKAKNTVYLQMTSLKPEETAVYYCATELGWGGFYKYGHASQFDYWGQGTQVTVSS | low polyreactivity
QVQLVESGGGLVQAGGSLRLSCAASGITFTKYVMGWYRQAPGKERELVATIRWGASSTHYADSVKGRFRISRDNAKNTVYFQMNSLKPEDTAVYYCNADCWYGAVYWWFYGFDYWGQGTQVTVSS | low polyreactivity
QVQLVESGGGLVQAGGSLRLSCAASGITFTLYAMGWYRQSPGKERELVAAISRGGGTTYYADSVKGRFTISRDNAKNTVYLQMNSLKPEDTAVYYCATDWHSSGYWGQGTQVTVSS | low polyreactivity
QVQLVESGGGLVQAGGSLRLSCAASGITFTNYAMGWYRQAPGKERELVAAISSRGGRTYYADSVKGRFTISRDNAKNTVYLQMNSLKPEDTAVYYCAASFFQVYGDDYWGQGTQVTVSS | high polyreactivity

Sequence | polyreactivity (PSR sort gate)
QVQLVESGGGLVQAGGSLRLSCAASGITFTPNAMGWYRQAPGTEREFVAAITYSGGSTYYADSVKGRFTISRDNAKNTVYLQMNSLKPEDTAVYYCAAVYDLLYYEAYYYWGQGTQVTVSS | low polyreactivity
QVQLVESGGGLVQAGGSLRLSCAASGITFTRYAMGWYRQAPGKEREFVAAIRRSGGNTYYADSVKGRFTISRDNAKNTVYLQMNSLKPEDTAVYYCAASPDIIGTSGEDDYWGQGSQVTVSS | low polyreactivity
QVQLVESGGGLVQAGGSLRLSCAASGITFTSYVMGWYRQAPGKERELVAAIRWSGGRTYYADSVKGRFTISRDNAKNTVYLQMNSLKPEDTAVYYCNRVTRSHVDYWGQGTQLTVSS | high polyreactivity
QVQLVESGGGLVQAGGSLRLSCAASGITFTVYAMGWYRQAPGKERELVAAINSVSSTNYADSVKGRFTISRDNAKNTVYLQMNSLKPEVTAVYYCAASYRKLPDKKRYGYWGQGTKVTVSS | high polyreactivity
QVQLVESGGGLVQAGGSLRLSCAASGITFTVYAMGWYRQAPGKERELVAAITSTGSTNYADSVKGRFTISRDNAKNTVYLQMNSLKPEDTAVYYCAARRSHQYRGPHFNYWGQGTQVTVSS | low polyreactivity
QVQLVESGGGLVQAGGSLRLSCAASGITFVANAMGWYRQAPGKERELVAAITRGGSTNYADSVKGRFTISRDNAKNTVYLQMNSLKPEDTAVYYCAADYVTRIGRYDYWGQGSQVTVSS | low polyreactivity
QVQLVESGGGLVQAGGSLRLSCAASGITFVFYAMGWYRQAPGKARELVATISYRGTSTYYADSVKGRFTISRDNAKNTVYLQMNSLKPEDTAVSYCAGDTYIYYKTGYGYWGQGTQVTVSS | low polyreactivity
QVQLVESGGGLVQAGGSLRLSCAASGITFVFYAMGWYRQAPGKERELVATITWRTTRTFYADSVKRRFTISRDNAKNTVYLQMNSLKPEDTAVYYCAAGVNSTTRINDYWGQGTQVTVSS | low polyreactivity
QVQLVESGGGLVQAGGSLRLSCAASGITFVKNAMGWYRQAPGKERELVARIRIGGSTSYADSVKGRFTISRDNAKNTVYLQMISLKPEDTAVYYCARYAGRLSYRYEYWGQGTQVTVSS | high polyreactivity
QVQLVESGGGLVQAGGSLRLSCAASGITFVKNAMGWYRQAPGKERELVARIRIGGSTSYADSVKGRFTISRDNAKNTVYLQMNSLKPEDPAVYYCARYAGRLSYRYEFWGQGTQVTLSS | high polyreactivity
QVQLVESGGGLVQAGGSLRLSCAASGITFVNYAMGWYRQAPGKERELVAAISNGGSTYYADSVKGRFTISRDNAKNTVYLQMNSLKPEDTAVYYCAAKPVQKFRPRYGYWGQGTQVTVSS | high polyreactivity
QVQLVESGGGLVQAGGSLRLSCAASGITFVRNAMGWYRQAPGKEREFVAAISGSGVSTYADSVKGRFTISRDNAKNTVDEQMISLKPEDTAVYYCARDFPWSYAWYDYWGQGTLVTVSS | low polyreactivity
QVQLVESGGGLVQAGGSLRLSCAASGITFVSYTMGWYRQAPGTEREFVAAITWNVASTYYADSVKGRFTISRDNAKNTVYLQMNSLKPEDTAVYYCAAGYDWSVITIYDYWGQGTQVTVSS | high polyreactivity
QVQLVESGGGLVQAGGSLRLSCAASGITFVTYAMGWYRQAPGKERELVAAISRSGGNTYYADSVKGRFTISRDNAKNTVYLQMNSLKPEDTAVYYCAAGGHRERDYWGQGTQVTVSS | high polyreactivity
QVQLVESGGGLVQAGGSLRLSCAASGITFVWNAMGWYRQAPGKERELVATISRGGVRTYYADSVKGRFTISRDNAKNTVYLQMNSLKPEDTAVYYCNVDETGVLVAYSFDYWGQGTQVTVSS | low polyreactivity
QVQLVESGGGLVQAGGSLRLSCAASGITFVYYAMGWYRQAPGKERELVAAISVSGGSTYYADSVKGRFTISRDNAKNTVYLQMNSLKPEDTAVYYCAADGYSGIGVREGYWGQGTQVTVSS | high polyreactivity
QVQLVESGGGLVQAGGSLRLSCAASGITFWHNTMGWYRQAPGKERELVAAISWTGGRTYYADSVKGRFTISRDNAKNTVYLQMNSLKPEDTAVYYCAADFSWTPSGNYDSWGQGTQVTVSS | low polyreactivity
QVQLVESGGGLVQAGGSLRLSCAASGITFWKYAMGWYRQAPGKERELVAAISGRGGSTYYADSVKGRFTISRDNAKNTVYLQMNSLKPEDTAVYYCAVGYRGWDGYWGQGTQVTVSS | high polyreactivity
QVQLVESGGGLVQAGGSLRLSCAASGITFWTYAMGWYRQAPGKERELVAAISKSGGSTYYADSVKGRFTISRDNAKYNVYLQLKSLKPEDTAVYYCAAKGLRYRDIDYDYWGQGTQVTVSW | low polyreactivity
QVQLVESGGGLVQAGGSLRLSCAASGITFWYYAMGWSRQEPGKERELVAGISRSDSNTYYADSVKGRFTISRDNAKNTLYLQMNSLKPEDTAVYYCSAYYYRRRYGGKYDYWGQGTQVTVSS | high polyreactivity
